T1: KCNE4-loopBAD-GFP (UniProt Q9WTW3 1-170, biotin on the loopBAD tag (BirA biotin ligase co-expressed))
T1 construct: KCNE4; also called KCNE4-pEGFP with loopBAD; KCNE4-GFP; source: HEK-293, electroporated together with BirA, on the cell surface; not shown: loopBAD (biotin acceptor domain), N-terminal, kept
T1 sequence (looked up): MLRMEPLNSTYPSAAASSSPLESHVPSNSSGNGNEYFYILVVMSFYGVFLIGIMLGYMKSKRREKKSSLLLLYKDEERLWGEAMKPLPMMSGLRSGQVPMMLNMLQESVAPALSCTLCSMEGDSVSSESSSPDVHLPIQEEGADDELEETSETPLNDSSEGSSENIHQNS


Columns and labels:
[1] = target: the molecule itself; assay: counting of GFP bleaching steps of single spots (TIRF microscopy); live HEK-293 cells with Kv1.3-loopBAD-GFP and BirA; biotinylated channels at the cell surface immobilised with NeutrAvidin (50 nM) on biotin-collagen-coated glass; step distribution fitted to a binomial with p = 0.67
[2] = target: T1, KCNE4-loopBAD-GFP; assay: counting of GFP bleaching steps of single spots (TIRF microscopy); live HEK-293 cells with KCNE4-loopBAD-GFP, Kv1.3-Apple and BirA; biotinylated KCNE4 at the cell surface immobilised with NeutrAvidin (50 nM); motionless GFP spots colocalising with Kv1.3-Apple; details: partners not purified

Binder	stoichiometry N [1]	stoichiometry N [2]
Kv1.3-loopBAD-GFP (natural protein, UniProt P15384 1-525, looked up, biotin on the loopBAD tag (BirA biotin ligase co-expressed), voltage-gated potassium channel Kv1.3; also called GFP-Kv1.3-loopBAD; pEGFP-Kv1.3 with loopBAD; source: HEK-293, electroporated together with BirA, on the cell surface; not shown: loopBAD (biotin acceptor domain), internal (first extracellular loop), kept) MTVVPGDHLLEPEAAGGGGGDPPQGGCVSGGGCDRYEPLPPALPAAGEQDCCGERVVINISGLRFETQLKTLCQFPETLLGDPKRRMRYFDPLRNEYFFDRNRPSFDAILYYYQSGGRIRRPVNVPIDIFSEEIRFYQLGEEAMEKFREDEGFLREEERPLPRRDFQRQVWLLFEYPESSGPARGIAIVSVLVILISIVIFCLETLPEFRDEKDYPASPSQDVFEAANNSTSGASSGASSFSDPFFVVETLCIIWFSFELLVRFFACPSKATFSRNIMNLIDIVAIIPYFITLGTELAERQGNGQQAMSLAILRVIRLVRVFRIFKLSRHSKGLQILGQTLKASMRELGLLIFFLFIGVILFSSAVYFAEADDPSSGFNSIPDAFWWAVVTMTTVGYGDMHPVTIGGKIVGSLCAIAGVLTIALPVPVIVSNFNYFYHRETEGEEQAQYMHVGSCQHLSSSAEELRKARSNSTLSKSEYMVIEEGGMNHSAFPQTPFKTGNSTATCTTNNNPNSCVNIKKIFTDV	4	
Kv1.3-Apple (natural protein, UniProt P15384 1-525, looked up, voltage-gated potassium channel Kv1.3; also called Kv1.3 tagged with mApple; source: HEK-293, electroporated, on the cell surface) MTVVPGDHLLEPEAAGGGGGDPPQGGCVSGGGCDRYEPLPPALPAAGEQDCCGERVVINISGLRFETQLKTLCQFPETLLGDPKRRMRYFDPLRNEYFFDRNRPSFDAILYYYQSGGRIRRPVNVPIDIFSEEIRFYQLGEEAMEKFREDEGFLREEERPLPRRDFQRQVWLLFEYPESSGPARGIAIVSVLVILISIVIFCLETLPEFRDEKDYPASPSQDVFEAANNSTSGASSGASSFSDPFFVVETLCIIWFSFELLVRFFACPSKATFSRNIMNLIDIVAIIPYFITLGTELAERQGNGQQAMSLAILRVIRLVRVFRIFKLSRHSKGLQILGQTLKASMRELGLLIFFLFIGVILFSSAVYFAEADDPSSGFNSIPDAFWWAVVTMTTVGYGDMHPVTIGGKIVGSLCAIAGVLTIALPVPVIVSNFNYFYHRETEGEEQAQYMHVGSCQHLSSSAEELRKARSNSTLSKSEYMVIEEGGMNHSAFPQTPFKTGNSTATCTTNNNPNSCVNIKKIFTDV		≤ 4 KCNE4 per Kv1.3 channel
